Tested on: MS2 coat protein
Experiment: apparent KD of MS2 coat protein; higher = weaker reporter binding
Details: Eterna round: R107
Method: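 RNA-MaP round R107: designed RNA switches with theophylline, tryptophan, arginine or FMN aptamers are transcribed on-chip within common flanks. They are titrated with SNAP-549-labelled MS2 coat protein in RNA-MaP buffer (100 mM Tris pH 7.5, 80 mM KCl, 4 mM MgCl2), without ligand or with the indicated ligand. Median apparent KD per design.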

[1] = input ligand: theophylline 20 uM
[2] = input ligand: theophylline 2 mM
[3] = input ligand: tryptophan 2.4 mM

Sequence	apparent KD of MS2 coat protein (input ligand: arginine 13.2 mM)	apparent KD of MS2 coat protein [1]	apparent KD of MS2 coat protein [2]	apparent KD of MS2 coat protein (input ligand: none)	apparent KD of MS2 coat protein [3]
AAUUCCGGGUCGGCCGCCACUGAUAUGGCGAGUCCUCGAACUUACAUGAGGAUCACCCAUGUAAACAGGACCGGGACCGCAUGGG [Exclusion Tryptophan B GF 23]	16.3 nM	28.4 nM	20.4 nM	–	–
UGAGAGACCAGAAGGAGCGACAUGAGGAUCACCCAUGUCUCCCGUUAUGGGAGUUCUUUAGGUCAGGUAGGUCGCUGGUCUCUCA [#1 Exclusion - Arginine B Attempt #8 (Inspired by Omei)]	59.9 nM	120 nM	149 nM	132 nM	87.8 nM
AGCAGUACAACAGAUACCAGACUUUUCAUGCCUUUAAUUACAUGAGGAUCACCCAUGUUUGUCCCUUGGCAGCUGUUGUACUGCA [JR_ExcTheophyB_Sub011]	29.5 nM	62.8 nM	–	–	39.9 nM
CGCAACCCACAUGAGGAUCACCCAUGUGAAGGAGCGGCGAAUAAGCCAGGUAGGUCGCGCAUGAAUAAAUCAUGUAGGAAGCGAA [XArg-A 7 V1&2]	18 nM	27.8 nM	28 nM	20.1 nM	22.5 nM
AAAACUCAUGGCUUAUAUCCGUGUCUCGAAGGAGCGUACAGCGGUACAGGUAGGUCGCGAGACAUGAGGAUCACCCAUGUGUAAA [XArg-A 20 V1&2 original #dotplot2>1]	22.3 nM	119 nM	1.46 nM	38.1 nM	0.526 nM
UGUAUGUGAUUUGAUACCAGACCAGCUGGUGUUAGAUGAGGAUCACCCAUCUAGGUUUGGGUCCCUUGGCAGCAAAUCGCAUACU [SS Theo B #24 Ms13]	18 nM	22.1 nM	11.4 nM	18 nM	18 nM
CUAUAGAUAAGAAGGAGCGUCGAAAAUGGGUAAACAUGAGGAUCACCCAUGUAAAGGGAACGACAGGUAGGUCGCUUAUUUAUAG [AstromonsSSArgB#6]	124 nM	206 nM	226 nM	217 nM	145 nM
CUAUAAGUAACUGAUACCAGUGUACUGACAUGAGGAUCACCCAUGUUGGGUUUUGUUGUACACCCUUGGCAGCAGAAUCUUGUAG [AstrosExyTheB#15]	46.5 nM	62.3 nM	–	–	54 nM
ACCUGCGUUUGAUUCUAUCUGACGCAGGUUCGAGGACCGGUACGGCCGCCACUCGGACAUGAGGAUCACCCAUGUUUGACAUGGG [#03 Exclusion Tryptophan A]	27.8 nM	608 nM	186 nM	121 nM	92.7 nM
AUUAAGGAUAUAUAGAAGGCGGAGAAGAGACGAGGACCGGUACGGCCGCCACUCGUGUUAGUUAACAUGAGGAUCACCCAUGUAA [Turkey 2]	41.3 nM	76.9 nM	102 nM	–	–
AACGGUCGUACCGGAAUGAUCCUCAUGUAACGAGGACCGGUACGGCCGCCACUCGAUAACAUGAGGAUCACCCAUGUAAUAAUAA [|T'-M'-Trp-Ms2|_Design11]	18.8 nM	17 nM	17.2 nM	–	–
AGCAAGUUCGGAAGGAGCGGUACAUGAGGAUCACCCAUGUAUUCAAUCGUGAUCGGAACGUGCCAGGUAGGUCGCCGAAUGCGUC [XArg-B1]	13.3 nM	23.1 nM	15.9 nM	13.1 nM	15 nM
AGAAUACAUGUUUUAAUACGGAAAACUGAUACCAGUGUAUCUAUUCACCCUUGGCAGCAGAGACAUGAGGAUCACCCAUGUAUUA [JR_Nu_SSTheophyA_Sub019]	28.1 nM	41.2 nM	–	–	46.6 nM
UGUAUGUGAUCUGAUACCAGCUAGCGGAAACGCAAGCUUGAGGAUCACCCAAGUGGAAUAAGCCCUUGGCAGCAGAUCGCAUACU [Denovo 5 #StaticStem #AlternativeMS2]	215 nM	197 nM	15.8 nM	266 nM	376 nM
AUAAUAAGGUGAUCCUAAGUCGUACCGUAACGAGGACCGGUACGGCCGCCACUCGAACAUGAGGAUCACCCAUGUAUGUACGACA [M'-T'-T-MS2-T'' - Design 6]	28.1 nM	96.1 nM	170 nM	56.1 nM	75.9 nM
UGUGGGUCCGAAGAUACCAGCCAGCACAGCAUGUGUUUAAACAUGAGGAUCACCCAUGUCGGCCCUUGGCAGCUUGGUUUGGACG [theeternabot_exclusion_MS2_Theo_B_7]	15.5 nM	19.8 nM	–	–	15.8 nM
CUCCCGUGGUCGGCCGCCACUGGAGGCCUUGCGCGACAUGAGGAUCACCCAUGUGGGCCCGGCGUCAGGACCGGGAUCGCGUGAG [#1 Same State - Tryptophan B Attempt #11 (HarryS)]	11.5 nM	20.2 nM	16.2 nM	16.1 nM	15.6 nM
UACAUAUGCCGAAGGAGCGUGAGAUGCAAAGCAUCAUUCCUCACAUGAGGAUCACCCAUGUCACAGGUAGGUCGCGGCAUAUGUU [ArgBX 3]	94.3 nM	115 nM	117 nM	90 nM	96.9 nM
AGUGUAUCCAUCGAUACCAGCCACCACCGAUAGACCACAUGAGGAUCACCCAUGUUGGGUGGCCCUUGGCAGCGGUGGCUGUGUA [Same State - Theophylline B Attempt #2 (HarryS)]	57.5 nM	512 nM	–	–	546 nM

Sequence	apparent KD of MS2 coat protein (input ligand: arginine 13.2 mM)	apparent KD of MS2 coat protein [1]	apparent KD of MS2 coat protein [2]	apparent KD of MS2 coat protein (input ligand: none)	apparent KD of MS2 coat protein [3]
AAACGUUGCUGCGAUACCAGACAUGAGGAUCACCCAUGUACCAAGGUACGAAUAUAACAUGUCCCUUGGCAGCGCAGCAACGAAA [MAT - Exclusion Theophlline B - Mod of Eli - D7]	17.5 nM	22.7 nM	–	–	13.6 nM
GGCCUAUGGCGCGAUACCAGCUUGAGUGUACUGGCCAGGUACAUGAGGAUCACCCAUGUAAGCCCUUGGCAGCGCGUCAUAGGCC [#1 Exclusion - Theophylline B Attempt #23 (HarryS)]	8.91 nM	17.9 nM	32.2 nM	9.95 nM	9.74 nM
ACAUGAAGAACAGCGGUGGGCGCGCUCGAUACCAGUACUUUAAAAUACCCUUGGCAGCGACAUGAGGAUCACCCAUGUGAGAUGA [XTheo A #4]	15.3 nM	18.5 nM	–	–	18.5 nM
CACAUGAGGAUCACCCAUGUCUGAACUGAAGGAGCGCUAAAUAAGGCAGGUAGGUCGCGGAAUUUUGUGUGCAUAUGCAUAUGGG [9.M]	23.8 nM	37.2 nM	34.2 nM	26.8 nM	28.8 nM
UGCCGAGACGUGGAUUACCCGUGUACCGAAGGAGCGCCCGAAAGGGCAGGUAGGUCGCGGAGGACAUGAGGAUCACCCAUGUUUA	202 nM	55 nM	79.8 nM	56.3 nM	55.7 nM
GUACGAGUUGAAUGUGAGACUGGCGUGGAAGGAGCGCACGGAGGUGCAGGUAGGUCGCCACAUGAGGAUCACCCAUGUCGGCUAG [XARG-A 23]	22.1 nM	27.3 nM	29 nM	23.2 nM	25.9 nM
AUUGUCGCGUCGGCCGCCACUGUCAUGGUUUUCGUGGAACACAUGAGGAUCACCCAUGUAAUUGACAGGACCGGGACGUGGCGGC [Vevea]	10.2 nM	11.1 nM	10.6 nM	8.64 nM	12.2 nM
AGCCCGUGAGCGGCCGCCACUGGAGGCUUUGCGCGACAUGAGGAUCACCCAUGUGUGCCCGGCGUUAGGACCGGGUUCACGUGGU [#1 Same State - Tryptophan B Attempt #19 (HarryS)]	59.4 nM	226 nM	838 nM	304 nM	124 nM
GAGUUCCUGAGAGAUACCAGUGAGGCCACAUGAGGAUCACCCAUGUCCCUCACUCCGGCCCACCCUUGGCAGCUCGAAAGAUAUU [Exclusion Theophylline B GF 22]	11.3 nM	16.7 nM	–	–	12.1 nM
ACGGAUCGGAAACGAUCCGCGGCGAGGGUGCGAGGACCGGUACGGCCGCCACUCGGCUAACAUGAGGAUCACCCAUGUCCGAAGA [ETA NuPACK+Vienna+Vienna2 #9]	43.6 nM	137 nM	117 nM	126 nM	172 nM
CAGUGAGAACGAAGGAGCGCUGAAUGAUGUGGACAUGAGGAUCACCCAUGUUAAGUCCAAUGGCAGGUAGGUCGCGUAACACUAG [Same State - Arginine B]	14.1 nM	11.9 nM	12.7 nM	15.8 nM	15.8 nM
GCUGGGUGCGCAAGGACCUGGCGUUGCGAUACCAGCACGGUAACGUGCCCUUGGCAGCGCACAUGAGGAUCACCCAUGUGGUGCG [#1 Exclusion - Theophylline A Attempt #21 (HarryS)]	18.7 nM	45.8 nM	–	–	22.5 nM
GGGCAAGAGGGAAGGAGCGUCAGCUGAGUAACAUGAGGAUCACCCAUGUAGCACAUAGUGUGACAGGUAGGUCGCCCUCUGCCCU [SS-ArgB6]	12.6 nM	10.4 nM	8.42 nM	8.97 nM	12.5 nM
GGUUGAAACUGAAGGAGCGAGAUGACAACAUUGGGUCUAACAUGAGGAUCACCCAUGUAAUCUCAGGUAGGUCGCAGUGACCAAA [Exclusion Arginine B GF 14]	38.1 nM	41.5 nM	46.7 nM	50.2 nM	43.1 nM
AAUCGGAGAUGAAGGAGCGCGUACAUGAGGAUCACCCAUGUAUCAAAGCUUCUCCCGUGUAUGCAGGUAGGUCGCAUUUCCACGU [Ceriedan]	10.1 nM	13 nM	9.18 nM	9.12 nM	9.9 nM
ACGUCACGUUUACUCGUGGUUUCGUUCGAUACCAGUAGCGAGAGUUACCCUUGGCAGCGACAUGAGGAUCACCCAUGUACGAAGA [XTheo A #24]	12.7 nM	15 nM	–	–	12.9 nM
GGCACCAGGAGAAGGAGCGUGAAGACAUGAGGAUCACCCAUGUAGAGGCCCGGACCGGGUUCGCAGGUAGGUCGCUCCUGGUGCC [#1 Same State - Arginine B Attempt #15 (HarryS)]	10 nM	17.9 nM	23 nM	15.6 nM	16.9 nM
AAAAGAGGUGGAAGGAGCGGGAGACAUGAGGAUCACCCAUGUGAUGUUACGAAAGGUUCAGCCCAGGUAGGUCGCCAUGUCGAAA [zczzmullin]	36.6 nM	268 nM	175 nM	46.8 nM	34.7 nM
GCACCAGGUACGGAUACCAGAGCAAGCCAAAUGAGUGAACUUGAGGAUCACCCAAGUUUGCUCCCUUGGCAGCCGUACCUGGUGC [ETB NP+V+V2 #12 Diff Apt, +-Same Structure]	7.29 nM	11.4 nM	29.2 nM	9.39 nM	8.49 nM
